Molecular target: RSA-2 (C. elegans (endogenous in embryos)) (UniProt G5EFV3)
Assay: co-IP

UniProt G5EFV3, sequence (G5EFV3 whole entry): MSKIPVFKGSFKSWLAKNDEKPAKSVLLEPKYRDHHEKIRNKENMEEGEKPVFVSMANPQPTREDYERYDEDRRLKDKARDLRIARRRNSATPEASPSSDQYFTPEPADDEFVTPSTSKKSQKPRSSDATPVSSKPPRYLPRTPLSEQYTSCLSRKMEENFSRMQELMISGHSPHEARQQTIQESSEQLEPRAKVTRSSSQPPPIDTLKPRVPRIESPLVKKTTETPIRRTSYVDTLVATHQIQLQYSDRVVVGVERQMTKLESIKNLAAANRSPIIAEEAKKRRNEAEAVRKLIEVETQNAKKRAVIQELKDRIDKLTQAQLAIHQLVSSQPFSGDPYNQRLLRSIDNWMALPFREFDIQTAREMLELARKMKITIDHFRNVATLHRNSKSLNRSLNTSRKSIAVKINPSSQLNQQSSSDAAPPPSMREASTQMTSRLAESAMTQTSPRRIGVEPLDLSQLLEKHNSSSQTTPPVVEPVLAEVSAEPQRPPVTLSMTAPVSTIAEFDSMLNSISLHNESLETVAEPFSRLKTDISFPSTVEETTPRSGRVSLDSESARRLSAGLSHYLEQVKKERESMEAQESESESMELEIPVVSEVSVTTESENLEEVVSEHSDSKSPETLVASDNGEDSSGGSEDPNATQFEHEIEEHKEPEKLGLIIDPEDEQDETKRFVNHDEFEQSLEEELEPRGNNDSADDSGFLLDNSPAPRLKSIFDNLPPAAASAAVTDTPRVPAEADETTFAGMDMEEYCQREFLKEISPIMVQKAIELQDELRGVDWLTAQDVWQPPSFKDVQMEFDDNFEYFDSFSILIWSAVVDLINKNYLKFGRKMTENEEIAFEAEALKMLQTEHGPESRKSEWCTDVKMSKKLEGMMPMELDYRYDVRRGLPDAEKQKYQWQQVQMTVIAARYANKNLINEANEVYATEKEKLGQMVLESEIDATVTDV

- percent of total protein co-immunoprecipitated: 20%
Substance: SPD-5 (from UniProt P91349 1-1198) (natural protein)
